We go through two molecules from patent US20030108957A1.

Experiment [1] addresses GroEL (E. coli), P0A6F5.
The target of experiment [2] is E. coli DnaK (E. coli), A1A766.
In experiment [3] the target is E. coli DnaK (E. coli), A1A766. As to the kind of experiment: cell-based or functional assay.
For experiment [4], the target named is guanyl-nucleotide binding protein Ras (21 kDa). As to the kind of experiment: fluorescence polarization, 1 nM labeled peptide, 4 µM Ras; background without protein 46±7. A general note: Fluorescence polarisation rises when a labelled molecule tumbles more slowly, as on binding a larger partner.
Experiment [5] deals with Hsp60 (the human equivalent of GroEL) (human), P10809. As to the kind of experiment: fluorescence polarization, 1 nM labeled peptide, 4 µM protein; blank about 62.
In experiment [6] the target is E. coli DnaK aa588-615 (E. coli).
Experiment [7] has as its target E. coli DnaK aa583-615 (hinge region between C-terminal helices D and E) (E. coli).
Experiment [8] has as its target Hsp60 (the human equivalent of GroEL) (human), P10809. As to the kind of experiment: fluorescence polarization, 1 nM labeled peptide, 2 µM protein; blank about 62.
For experiment [9], the target named is E. coli DnaK (E. coli), A1A766. The source holds these as a separate data set.
For experiment [10], the target named is GroEL (E. coli), P0A6F5. This is another data set of the same source.
The target of a further experiment is T1, GrpE, P09372.
T1 chain: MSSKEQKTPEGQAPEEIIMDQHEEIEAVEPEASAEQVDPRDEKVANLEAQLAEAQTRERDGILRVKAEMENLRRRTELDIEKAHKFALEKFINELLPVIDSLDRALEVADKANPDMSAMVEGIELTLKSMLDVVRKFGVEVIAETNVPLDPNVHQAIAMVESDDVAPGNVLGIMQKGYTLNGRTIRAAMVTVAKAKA

The target in experiment [11] is E. coli DnaK (E. coli), A1A766. The source holds these as a separate data set.
A further experiment has as its target T2, GroES, P0A6F9.
T2 chain: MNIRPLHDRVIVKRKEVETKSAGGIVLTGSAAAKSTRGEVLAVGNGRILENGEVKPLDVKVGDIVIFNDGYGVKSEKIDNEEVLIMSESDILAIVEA

Several values for one entry are separate records, joined by “and”; a condition that tells them apart may be missing. Equal values may be shown once.

Chain of Hsp60 (the human equivalent of GroEL) (human), P10809 (P10809 27-573 limits assumed): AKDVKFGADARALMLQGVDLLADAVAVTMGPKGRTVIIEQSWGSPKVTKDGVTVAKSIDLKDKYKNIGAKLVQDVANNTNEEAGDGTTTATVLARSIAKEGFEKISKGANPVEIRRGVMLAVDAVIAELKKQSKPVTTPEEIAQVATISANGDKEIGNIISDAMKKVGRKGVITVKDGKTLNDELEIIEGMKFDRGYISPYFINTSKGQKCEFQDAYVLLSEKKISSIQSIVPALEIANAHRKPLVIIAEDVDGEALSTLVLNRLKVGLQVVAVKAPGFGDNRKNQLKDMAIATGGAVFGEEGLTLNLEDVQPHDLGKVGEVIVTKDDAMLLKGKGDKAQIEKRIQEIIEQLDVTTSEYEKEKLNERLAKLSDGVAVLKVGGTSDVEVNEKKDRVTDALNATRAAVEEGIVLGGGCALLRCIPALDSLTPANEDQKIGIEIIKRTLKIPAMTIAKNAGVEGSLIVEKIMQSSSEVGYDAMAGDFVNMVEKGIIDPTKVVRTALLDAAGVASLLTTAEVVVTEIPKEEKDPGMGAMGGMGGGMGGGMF

B1: pyrrhocoricin (unlabeled, all L-amino acids, without sugar) (peptide)
peptide: VDKGSYLPRPTPPRPIYNRN
modifications: not checked
In the case of B1, the Millipolarization after preincubation (millipolarization) in the experiment with GroEL (E. coli), P0A6F5 [1] is 62; in [2], 110 and 84. In addition, the ATPase activity of recombinant DnaK (EnzChek assay, UV absorbance at 360 nm), 50 molar equivalents of peptide (fraction of the original value) in experiment [3] is under 0.5.

B2: fluorescein-K-pyrrhocoricin (peptide)
peptide: KVDKGSYLPRPTPPRPIYNRN
modifications: not checked
In general, Kd refers to the free concentration of one partner at which half of the binding sites on the other are occupied at equilibrium, for simple one-to-one binding. Turning to B2, in [4], the millipolarization units (millipolarization units) amounted to 52. Moreover, the minipolarization value (millipolarization) was 90 in [5]; 62 in [8]; > 100 and 85 with GroEL (E. coli), P0A6F5 [10]; under 62 with GrpE, P09372; 100 and 95 in experiment [11]; under 62 with GroES, P0A6F9. Also, the Millipolarization (no competing peptide) (millipolarization) is 70 with GroEL (E. coli), P0A6F5 [1] and 126 in experiment [2]. For the same molecule, the Kd in [6] is 93 µM; in experiment [7], 50.8 µM; in [9] it was 1.1 µM. In experiment [9], this molecule had a millipolarization over the background of 50%.
